According to the supplement of paper PMC12042874:
± gives the uncertainty stated by the source.

Experiment: amyloid nucleation score (Sup35N fusion, yeast selection) (log enrichment); library NNK2; higher = more nucleation; inactive = no reads after selection
How it was run: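 Psi-negative yeast expressed Sup35N fused to peptides of 20 random codons. They were induced 24 hours with 100 μM copper sulfate, grown 7 days at 30°C without adenine and uracil, and their plasmid inserts from input and output were Illumina-sequenced. The nucleation score is the DiMSum log enrichment of output over input reads, centred on the mode score of non-aggregating sequences. Sequences with under 100 input reads were excluded.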

Substance | amyloid nucleation score
KRGKPK | inactive
KRNVLRVTSCHKEYSVGSVP | 0.739 ± 0.22
KRNVRFVGMITKRMSRSRPI | 0.511 ± 0.43
KRSFVIRNLGFCALRLHISV | 4.63 ± 0.11
KRSTNWKDC | -1.07 ± 0.64
KRWLKMWKRWQRRFMCGLLS | 0.472 ± 0.32
KSASRYNRQWNRHSYWMANR | -0.064 ± 0.34
KSCSMMFILWVTAGMDRWGH | 6.25 ± 0.09
KSFGCIRKCEDCYIW | 0.74 ± 0.51
KSHSDSFDYW | 0.233 ± 0.74
KSIESGRIRK | 0.627 ± 0.35
KSINNC | 0.181 ± 0.26
KSINSFYKRIDVVWGMRSQS | -0.984 ± 0.33
KSIRAYYYVSRQ | 0.263 ± 0.25
KSLDFR | 0.493 ± 0.46
KSRWRQRILVPIPWWARHVE | 0.239 ± 0.29
KSSNHITRFRSHSMETSRMV | inactive
KSVFYIWFSHRVSVVAVRQL | 5.13 ± 0.093
KSVSVGQVRTCPYSFISPVL | 0.247 ± 1
KTIPSGVVGWVSEGQRSTNR | 7.87 ± 0.08
KTLVKESCCNLNSRSDLWGL | -0.754 ± 0.76
KVINFGCTTFDYGYATYFGQ | 6.66 ± 0.055
KVLFTGFFANVGFSSSVRAN | -0.567 ± 1.1
KVLTCRIYSIWVLIC | 0.009 ± 0.32
KVMVRLGSNSAAKYFYVNRV | 3.84 ± 0.057

Substance | amyloid nucleation score
KVRGPSNNVSSQKAHDRFDS | 0.277 ± 0.28
KVSHAWM | 0.704 ± 0.53
KVTSRTTGMIVSFFMPCLEM | 5.97 ± 0.072
KWFLGCRVDHRMRVRMCLQ | -0.292 ± 0.54
KWMFEVTVYGRWYVTHQAGL | 4.827 ± 0.041
KWVGWMWGYEGSLWSSNLWR | 0.242 ± 0.77
KYCDWYL | -0.274 ± 0.22
KYDGAFQRGGIIQISYLCLW | 4.87 ± 0.071
KYENYLCITFMGCLLGMRSE | inactive
KYFIASLDQFSYISVHNEVV | inactive
KYGNFVFTFLLINPF | inactive
KYMCSLMEATFLYNGSALRC | -1.6 ± 1.1
KYMINAYTAGWIGV | -1.41 ± 0.34
KYSIGTETVHGCLQPLCPAH | -0.095 ± 0.46
KYSTISRCAYSRIDVCGKKK | 0.488 ± 0.33
KYYCATSSVFYASSRQMFKS | -0.267 ± 0.49
LAAKFCCQLSFGSFCDCIFR | 7.82 ± 0.084
LAAWLWYTWKG | 0.589 ± 0.66
LADSAYTPY | -0.727 ± 0.54
LAGFGMNFSFRFSVLTWGSV | 3.13 ± 0.09
LAGLYGNFCISRCSVANQMV | 2.08 ± 0.095
LAISHMLSKCVKKIDTL | 1.56 ± 0.2
LAKWGKLCCVLYQYPVSLGE | 0.71 ± 0.28
LAQSYVSYS | -1.45 ± 0.54
LAQVFIIEAPFMTKFLPMLR | 2.81 ± 0.097

Substance | amyloid nucleation score
LCDLVKASSMFANGSDHFIV | -0.569 ± 0.61
LCDTVTYWVPLC | 4.28 ± 0.094
LCHTRCDRNSSCLL | -0.56 ± 0.79
LCIFYNWRCV | 6.76 ± 0.024
LCISCNVGLGSIKVRNNAFA | 6.12 ± 0.042
LCKYDGCMIAYGVLHSSSAG | 0.651 ± 0.26
LCNGKAPCFKLCIRCLVGLW | 2.82 ± 0.13
LCNMHIMRFNM | -1.07 ± 1.1
LCQIANNSVGLRKDQEGLR | 0.375 ± 0.41
LCRYARCLIVSFVRIFGCCL | -0.47 ± 1.1
LCVCRPGRRSIYLMVWVWWN | -0.513 ± 0.53
LCVLLHVTEKLKANSTLSCV | -0.317 ± 1.1
LDALVSWSLECGWYESCWSR | -0.025 ± 0.32
LDFVQCILAVIQGSRDAAGA | 0.438 ± 0.64
LDICCIRGMNRHFRFYNVDV | -0.402 ± 0.61
LDIPNGNYVLMSYR | 0.32 ± 0.44
LDITVCMRFKAPAIIWAYYF | -0.657 ± 0.48
LDLDMRGKHFVFHHTVKHAI | 1.79 ± 0.14
LDPCGYVVSSEGMLVIGVPI | 0.209 ± 0.39
LDPLRPG | 1.14 ± 0.39
LDRGVVSLRLLFARAHNYSK | 2.88 ± 0.15
LDVPARSMCFY | -0.761 ± 0.61
LECCG | -0.838 ± 0.55
LEDGRTSLGMTQRYSIRNIC | -1.11 ± 0.55
LEGGGGFSRAL | -0.651 ± 1.1

Substance | amyloid nucleation score
LEQKVIIRCCPN | 0.091 ± 0.18
LERFEH | 2.01 ± 0.24
LERGENEVRWTKKLRIKFVF | -0.228 ± 1.1
LESMFNVL | -0.44 ± 0.56
LEVKARFP | -0.471 ± 0.45
LEYCDATLVVRDRQVSAVFL | 0.584 ± 0.35
LFARLLLHYVTS | 9.204 ± 0.08
LFCVDNVVKKGTVP | -0.365 ± 0.76
LFERLELFWYNEGHIMGFGL | 3.42 ± 0.049
LFFDTCRIPRSYWSCLEEES | -0.206 ± 0.42
LFFTFSKKFAR | 3.48 ± 0.068
LFHFGNCSRIRGWGICVTSL | -0.506 ± 0.55
LFISFAACGTF | 2.09 ± 0.11
LFLFGSV | 0.28 ± 0.62
LFLLFFRFFQMGDLHYIIAI | -0.661 ± 1.1
LFLQGRNQLDTHWFCPACPM | -0.727 ± 0.55
LFNVMFRSLMVGWMYHENGL | 0.525 ± 0.44
LFSVLL | -0.916 ± 1
LFVYIFVVKVDF | 0.959 ± 0.27
LFYGNHWAPASWIWN | 2.34 ± 0.15
LGCICMR | 4.09 ± 0.071
LGDCVSNHSCLSVEHFDLNY | 4.92 ± 0.11
LGDERDADQIPSGIYG | 1.26 ± 0.27
LGEIVHLTVDASIRSSDR | 5.13 ± 0.088
LGFDFSNVKRTGRVTFFDCM | -0.1 ± 0.35

Substance | amyloid nucleation score
LGKFEA | inactive
LGLPNNGL | -0.187 ± 0.55
LGLRDELTVVVCWFRTYLIR | 4.634 ± 0.044
LGSDMRLRMTYCPKRCVRWH | 2.77 ± 0.14
LGSWR | -0.829 ± 1.1
LGYGWFNVLTYTTI | -0.209 ± 0.65
LGYIWLALRIVNCLDNGVPY | -1 ± 0.44
LHCYFFRLMCQSYDRDYKC | -0.249 ± 1
LHFSICMPTGCDVPPGDKGG | inactive
LHGGVLFKTSTMAGFR | -0.501 ± 0.54
LHIDGNENRFLHRDGKRQEA | 0.245 ± 0.39
LHWFMVEDH | 0.19 ± 0.42
LHYTYVSDCVCRMDTLLFGL | -0.278 ± 0.45
LIAKMAIKFKGDAQF | 4.05 ± 0.09
LIFEEQENAGGMASIMSSMV | 0.463 ± 0.3
LIFRAVWVVMSHHLTG | 0.039 ± 0.42
LIFYIVNHECINGRYALVGY | 0.448 ± 0.62
LIGCPLVDFTLYLCS | inactive
LIIDSGYPSGS | 0.458 ± 0.8
LIPVTGAMGSN | 0.183 ± 0.4
LIQFDTISSLYP | -0.271 ± 0.63
LITRGCCL | -0.33 ± 0.76
LITTSMYLWSVHSFVLHMDD | 0.545 ± 0.4
LIYPANDANNSTR | -0.616 ± 0.64
LKATQLYGFYMTEKCVDSSW | -0.549 ± 1

Substance | amyloid nucleation score
LKDETN | inactive
LKNVLTCESVINQLR | -0.464 ± 0.39
LKTGSF | inactive
LKTQWQSPWVQMV | -0.09 ± 0.48
LKWVYLSSIALTFAPPRRLD | 3.63 ± 0.069
LLADAVMWFTMGSEDHDCY | -0.531 ± 0.44
LLASRWPRYLNSWRKSHVKV | -0.133 ± 1
LLCNWSPTLRHYFMRWDLGC | -0.901 ± 0.36
LLDACHLGNWTAGNGYYDRV | -0.531 ± 1.1
LLDINSCRFDMVISDMDNCP | inactive
LLDMYNYTGIF | inactive
LLFLVCTSFNLDIQWNFALG | 4.76 ± 0.087
LLFQVLPKMTSAPPSGWSTP | 0.547 ± 0.81
LLGSYI | inactive
LLGTFYTS | -1 ± 1.1
LLHYGGSFLAAKFRRMGFTM | -0.262 ± 0.56
LLHYGGSFLAAKFRRMSCNE | 0.811 ± 0.66
LLINLVPFWLILRHDYLIKF | 0.959 ± 0.74
LLKVF | -1.01 ± 1.1
LLLASAMWYGKLIRMRLLG | 0.659 ± 0.48
LLLHSIQIYDMRR | 5.53 ± 0.089
LLLLMWALGLLENLTTLHGF | -0.257 ± 0.47
LLLNNLVYFSLRVYLLNFCL | -2.07 ± 0.62
LLLTNVKW | inactive
LLMLVSFLIDDEAFSVFDLL | 0.672 ± 0.39

Substance | amyloid nucleation score
LLRGRFGDSVSAVGFSGFCN | -0.502 ± 0.45
LLSKFF | inactive
LLSRPTGQLVVPSQGLHFCY | 0.242 ± 0.61
LLSSLVFVVNFFAKGLRWLT | -1.9 ± 0.62
LLVKF | 0.641 ± 0.74
LLVRTYKLMMFHSLGIG | -0.583 ± 1
LLYIDLVVHVFQSGSSGRLL | 2.79 ± 0.083
LLYNGVILLECGWYMVSVAS | -0.071 ± 0.29
LMFCTRFSLYTGSWFWSSVT | 1.57 ± 0.18
LMFWGCSGLRWLVVLSDNKA | 3.8 ± 0.097
LMHSQCSFSNELYVDSEARG | 0.093 ± 0.38
LMHWV | -0.94 ± 0.38
LMKNEFSRYHTSCVVRGNSL | 0.334 ± 0.28
LMRFSDVDY | inactive
LMSIVVKVVDSTIIIKCVFS | -0.667 ± 0.76
LMTPVNSILLRLWCSIFLCF | 3.26 ± 0.12
LMYCI | -0.211 ± 0.76
LNFGMY | -0.772 ± 0.78
LNGLDPSNAHMIYYLYTSYL | -1.25 ± 0.54
LNICDLRPLV | -0.93 ± 0.76
LNISYSAH | 0.264 ± 0.65
LNLLNPWYSCKQSRVYNGYI | -1.31 ± 0.54
LNMVMLICNLWDVPHPRYLP | 5.14 ± 0.052
LNNRLVFSKVHGCRICNRRS | inactive
LNTMPRK | 0.004 ± 1.1
